Data set [1] relates to N=C(N)NCCC[C@H](N)C(=O)Nc1ccc([N+](=O)[O-])cc1. The data set can be described thus: purified protein, by the assay type. The settings on record: other: aa-pNA varied, 3 mM MnCl2, 100 nM PaPepA, pH 8.0, 25 °C, pH 8.0.
For data set [2], the system named is CC(C)C[C@H](N)C(=O)Nc1ccc([N+](=O)[O-])cc1. The experiment in a line: purified protein, by the assay type. The settings on record: 25.0 °C.

Drawing on publication PMC10666288, “Unveiling the Catalytic Mechanism of a Processive Metalloaminopeptidase” (Biochemistry, 2023), this text covers Km, kcat and kcat/Km for one substance.

As for “PaPepA (Pseudomonas aeruginosa UCBPP-PA14)”, the Km (in general, the concentration of substrate that gives half-maximal velocity) in data set [1] stood at 120 ± 20 µM; in data set [2] (other: 5 % PEG 8000, Leu-pNA varied) it was 110 µM; in data set [2] (other: H2O (0% PEG-8000), Leu-pNA varied), 86.9 µM. Further, the kcat – broadly, the maximal rate divided by the concentration of active sites – in data set [1] stood at 0.052 s⁻¹. Besides, in data set [1], the kcat/Km (usually the turnover number divided by the Michaelis constant) was found to be 440 M⁻¹ s⁻¹.
